This passage reports Kd and k0F off (outer barrier) results from paper PMC3576412.

One test deals with Im9 (Escherichia coli) (UniProt P13479). The conditions noted are these: cited from earlier work.
Test [1] addresses DNase domain of colicin E9, E9 (S3C) (E. coli). Kind of test: dynamic force spectroscopy (AFM).

As usually defined, the Kd is a measure of binding affinity in units of concentration. With “Colicin E9 DNase domain (from UniProt P09883)”, the Kd with Im9 (Escherichia coli) is 0.016 pM.

B1: Im2 (D33A), pulled from residue 81 (natural protein)
chain: MELKHSISDYTEAEFLEFVKKIARAEGATEEDANKLVREFERLTEHPDGSDLIYYPRDDREDSPEGIVKEIKEWRAANGKCGFKQG
With B1, the k0F off (outer barrier) in test [1] came to 7.6 s⁻¹.
